Laboratory results reported in the supplement of paper PMC11136658.

System: peptide library, one residue held at a place counted from the Y acceptor
Test: relative phosphorylation of the sub-library (ratio to the mean residue at this position); higher = residue favoured
Summary of the method: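 Biotinylated Tyr-centred peptide library mixtures, each fixing one residue at one position from −5 to +5, were incubated with purified recombinant kinases in 384-well plates for 90 min with 50 μM ATP plus γ-32P-ATP. Streptavidin membranes captured the peptides, which were rinsed and quantified by phosphorimaging and ImageQuant. At each position, intensities were divided by the sum of the 18 randomized residues (16 for the Ser/Thr-free library) and multiplied by that number. Each value is phosphorylation relative to the mean randomized residue.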

Chain of EPHB1, construct: aa613-881, human (P54762 613-881, looked up): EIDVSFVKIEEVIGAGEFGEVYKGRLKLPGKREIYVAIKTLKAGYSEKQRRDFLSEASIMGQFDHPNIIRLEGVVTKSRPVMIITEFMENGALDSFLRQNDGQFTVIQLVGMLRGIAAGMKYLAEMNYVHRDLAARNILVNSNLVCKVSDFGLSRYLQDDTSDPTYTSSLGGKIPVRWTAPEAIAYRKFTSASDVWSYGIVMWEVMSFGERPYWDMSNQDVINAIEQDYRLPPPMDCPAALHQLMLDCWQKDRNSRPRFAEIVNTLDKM

EPHB1, construct: aa613-881, human (from UniProt P54762)
relative phosphorylation
Details | at +1 | at +2 | at +3 | at +4 | at +5 | at -1 | at -2 | at -3 | at -4 | at -5
A fixed | 1.86 | 0.98 | 0.818 | 0.902 | 1.1 | 0.664 | 1.16 | 0.857 | 0.999 | 0.906
D fixed | 0.907 | 1.01 | 0.511 | 1.08 | 1.13 | 2.22 | 1.09 | 1.22 | 1.23 | 1.15
E fixed | 2.33 | 1.18 | 0.427 | 1.04 | 1.06 | 1.2 | 1.27 | 1.34 | 1.26 | 1.01
F fixed | 0.676 | 1.14 | 1.37 | 1.06 | 1.13 | 1.19 | 0.677 | 1.31 | 1.19 | 1.07
G fixed | 0.571 | 0.414 | 0.575 | 1.03 | 1.05 | 0.223 | 1.23 | 0.898 | 1.15 | 0.979
H fixed | 0.566 | 0.769 | 1.39 | 1.18 | 0.938 | 0.762 | 0.888 | 1.05 | 0.872 | 0.934
I fixed | 1.67 | 1.36 | 2.18 | 0.773 | 0.815 | 2.09 | 0.872 | 0.944 | 0.907 | 0.956
K fixed | 0.212 | 0.585 | 0.29 | 0.744 | 0.784 | 0.264 | 0.946 | 0.631 | 0.931 | 1.05
L fixed | 0.823 | 1.04 | 1.37 | 0.828 | 1.08 | 1.95 | 0.914 | 1.02 | 1.07 | 1.11
M fixed | 1.48 | 0.935 | 1.19 | 1.07 | 1.01 | 0.95 | 0.689 | 0.874 | 0.872 | 0.926
N fixed | 0.383 | 0.951 | 0.731 | 0.806 | 0.856 | 1.81 | 1.05 | 1.03 | 0.844 | 1.13
P fixed | 0.195 | 0.858 | 0.899 | 1.29 | 1.49 | 0.436 | 1.33 | 1.2 | 1.21 | 0.947
Q fixed | 1.22 | 0.982 | 0.849 | 1.07 | 0.94 | 0.423 | 1.13 | 0.835 | 1.19 | 1.13
R fixed | 0.252 | 0.768 | 0.419 | 0.835 | 0.782 | 0.29 | 0.905 | 0.672 | 0.9 | 1.01
S fixed | 0.934 | 0.981 | 0.691 | 0.94 | 0.972 | 0.519 | 1.3 | 0.923 | 0.722 | 0.841
T fixed | 0.868 | 1.02 | 0.848 | 0.939 | 0.938 | 0.968 | 0.917 | 0.844 | 0.667 | 0.757
V fixed | 1.83 | 1.56 | 1.95 | 0.911 | 0.876 | 1.24 | 0.912 | 0.928 | 0.854 | 0.949
W fixed | 1.22 | 1.45 | 1.49 | 1.5 | 1.05 | 0.811 | 0.714 | 1.42 | 1.14 | 1.15
pThr fixed | 1.9 | 1.95 | 0.439 | 1.03 | 0.655 | 1.58 | 0.851 | 0.856 | 0.945 | 1.02
pTyr fixed | 1.56 | 3.38 | 0.718 | 1.1 | 0.883 | 1.69 | 0.936 | 1.13 | 1.12 | 1.25
